Experimental data from US5543392A, “Digestive tract cell activating agent of EGF and lactoferrin” (Morinaga Milk Industry Co., Ltd., priority 1992, dated 1996).

How the values were obtained:
[1] = test system: IEC18 cells; assay: Test 3: proliferation of small intestine epithelial cells (cell count by hemocytometer); assay type: cell-based, rat; conditions: single addition of 50 μg/ml; sixth and tenth days of culture; compared with control group and EGF single group
Experimental: ICE18 cells (the same ones as in the Test 1) were inoculated onto a 24-well culture plate by 5,000 cells per well, and were cultured for ten days with 1% FBS DMEM (0.5 ml) containing the following test subjects. During this test period, the medium was replaced on the third and the sixth days, and the number of cells was measured on the third, the sixth and the tenth days. The number of cells was counted by a hemocytometer after treating the cells with 0.25% trypsin solution and suspending them in the solution.
The test subjects included a sample added with nothing, a sample added with 10 ng/ml EGF, a sample added with 50 μg/ml bLf or bLf-Hy, and a sample added with 10 ng/ml EGF and 50 μg/ml bLf or bLf-Hy.

[2] = test system: IEC18 cells; assay: Test 2: effect of simultaneous use of Lf or Lf-Hy and EGF on DNA synthesis (3H-thymidine incorporation); assay type: cell-based, rat; conditions: single use of bLf, various concentrations

B1: bLf: bovine lactoferrin (manufactured by Yukijirushi Nyugyo Company) (protein, UniProt P24627 20-708, looked up)
Lactotransferrin: APRKNVRWCTISQPEWFKCRRWQWRMKKLGAPSITCVRRAFALECIRAIAEKKADAVTLDGGMVFEAGRDPYKLRPVAAEIYGTKESPQTHYYAVAVVKKGSNFQLDQLQGRKSCHTGLGRSAGWIIPMGILRPYLSWTESLEPLQGAVAKFFSASCVPCIDRQAYPNLCQLCKGEGENQCACSSREPYFGYSGAFKCLQDGAGDVAFVKETTVFENLPEKADRDQYELLCLNNSRAPVDAFKECHLAQVPSHAVVARSVDGKEDLIWKLLSKAQEKFGKNKSRSFQLFGSPPGQRDLLFKDSALGFLRIPSKVDSALYLGSRYLTTLKNLRETAEEVKARYTRVVWCAVGPEEQKKCQQWSQQSGQNVTCATASTTDDCIVLVLKGEADALNLDGGYIYTAGKCGLVPVLAENRKSSKHSSLDCVLRPTEGYLAVAVVKKANEGLTWNSLKDKKSCHTAVDRTAGWNIPMGLIVNQTGSCAFDEFFSQSCAPGADPKSRLCALCAGDDQGLDKCVPNSKEKYYGYTGAFRCLAEDVGDVAFVKNDTVWENTNGESTADWAKNLNREDFRLLCLDGTRKPVTEAQSCHLAVAPNHAVVSRSDRAAHVKQVLLHQQALFGKNGKNCPDKFCLFKSETKNLLFNDNTECLAKLGGRPTYEEYLGTEYVTAIANLKKCSTSPLLEACAFLTR
number of cells (FIGS. 3 and 4) [1]: significantly increased | quantity of incorporated 3H-thymidine into DNA (FIG. 1) [2]: no effect
